By Kd is commonly meant the constant that tells how readily two partners part at equilibrium. Low readings indicate higher affinity, high ones lower affinity.

The target of test [1] is T1, BxPC3.
T1 construct: Group of unnamed glycoproteins on whole cells; also called cell surface of BxPC3 cells
The test is described as follows: flow cytometry titration on BxPC3 cells, geometric mean against antibody concentration [panel FACS - BxPC3].

The target of test [2] is T2, HCT-15.
T2 construct: Group of unnamed glycoproteins on whole cells; also called cell surface of HCT-15 cells
Put plainly: flow cytometry titration on HCT-15 cells, geometric mean against antibody concentration [panel FACS - HCT-15]. (In general: A flow cytometer gives signals particle by particle.)

Test [3] has as its target T3, LS180.
T3 construct: Group of unnamed glycoproteins on whole cells; also called cell surface of LS180 cells
Put plainly: flow cytometry titration on LS180 cells, geometric mean against antibody concentration [panel FACS - LS180].

Test [4] deals with T4, Colo205.
T4 construct: Group of unnamed glycoproteins on whole cells; also called cell surface of Colo205 cells
The test is described as follows: flow cytometry titration on Colo205 cells, geometric mean against antibody concentration [panel FACS - Colo205].

The target in test [5] is T4, Colo205. Put plainly: flow cytometry titration on Colo205 cells, Gm value against concentration.

B1: CH129 (chimeric FG129, mouse variable regions on human IgG1/kappa constant regions) (antibody)
heavy: not shown
light: DIVMTQSPSSLTVTAGEKVTMSCKSSQSLLNSGNQKNYLTWYQQKPGQPPKVLIYWASTRESGVPDRFTGSGSGTDFTLTISSVQAEDLAVYYCQNDYSSPFTFGSGTKLEIKRTVAAPSVFIFPPSDEQLKSGTASVVCLLNNFYPREAKVQWKVDNALQSGNSQESVTEQDSKDSTYSLSSTLTLSKADYEKHKVYACEVTHQGLSSPVTKSFNRGEC
notes: Expressed in CHO-S or HEK293 cells and purified on protein G
Take B1: the Kd in test [1] was determined as 118 nM; in test [2], 15.3 nM; in test [3] it was 110 nM; in test [4], 57.3 nM.

B2: FG129 mAb (mouse FG129/29 IgG1 kappa) (antibody)
heavy: EVQLVESGGGLVQPKGSLKLSCAASGFTFNTYAMNWVRQAPGKGLEWVARIRSKSNNYATYYADSVKDRFTISRDDSQSMLYLQMNNLKKEDTAMYYCVGYGSGGNYWGQGTSVTVSSAKTTPPSVYPLAPGSAAQTNSMVTLGCLVKGYFPEPVTVTWNSGSLSSGVHTFPAVLESDLYTLSSSVTVPSSPRPSETVTCNVAHPASSTKVDKKIVPRDCGCKPCICTVPEVSSVFIFPPKPKDVLTITLTPKVTCVVVDISKDDPEVQFSWFVDDVEVHTAQTQPREEQFNSTFRSVSELPIMHQDWLNGKEFKCRVNSAAFPAPIEKTISKTKGRPKAPQVYTIPPPKEQMAKDKVSLTCMITDFFPEDITVEWQWNGQPAENYKNTQPIMNTNGSYFVYSKLNVQKSNWEAGNTFTCSVLHEGLHNHHTEKSLSHSPGK
light: DIVMTQSPSSLTVTAGEKVTMSCKSSQSLLNSGNQKNYLTWYQQKPGQPPKVLIYWASTRESGVPDRFTGSGSGTDFTLTISSVQAEDLAVYYCQNDYSSPFTFGSGTKLEIKRADAAPTVSIFPPSSEQLTSGGASVVCFLNNFYPKDINVKWKIDGSERQNGVLNSWTDQDSKDSTYSMSSTLTLTKDEYERHNSYTCEATHKTSTSPIVKSFNRNEC
notes: Murine IgG1k from a hybridoma; It recognises the glycans sialyl-di-Lewis a, sialyl-Lewis a-x and mono-sialyl-Lewis a on glycoproteins; also called mAb FG129; F129/29
For B2, the Kd in test [1] was found to be 80.2 nM; in test [2] it was 42.7 nM; in test [3] it was 67.9 nM; in test [4] it was 53.3 nM.

B3: FG129-scFv (scFv)
scFv: EVQLVESGGGLVQPKGSLKLSCAASGFTFNTYAMNWVRQAPGKGLEWVARIRSKSNNYATYYADSVKDRFTISRDDSQSMLYLQMNNLKKEDTAMYYCVGYGSGGNYWGQGTSVTVSGGGGSGGGGSGGGGSDIVMTQSPSSLTVTAGEKVTMSCKSSQSLLNSGNQKNYLTWYQQKPGQPPKVLIYWASTRESGVPDRFTGSGSGTDFTLTISSVQAEDLAVYYCQNDYSSPFTFGSGTKLEIKRAAAAAAHHHHHH
notes: Order is leader, VH, 3xGGGGS, VL, 6xAla, 6xHis; The leader is left out as secreted from Expi293 cells; also called scFv129
Turning to B3, the affinity in test [5], expressed as Kd, was 377 nM.

For the origin of these results see US10835618 (UNIVERSITY OF NOTTINGHAM, dated 2020).
